Consider two substances from patent US20210244785A1.

Series [1] is described as follows: tryptophan fluorescence, urea dissociation of multimeric peptide complexes, 5 µM peptide.
A short description of series [2]: tryptophan fluorescence, urea dissociation of multimeric peptide complexes, 25 µM peptide.
The target in series [3] is S. epidermidis delta-haemolysin (Staphylococcus epidermidis). The series can be described thus: tryptophan fluorescence, urea dissociation of multimeric peptide complexes, 5 µM peptide.
Series [4] shares this target. The series can be described thus: tryptophan fluorescence, urea dissociation of multimeric peptide complexes, 25 µM peptide.

As for S. epidermidis delta-haemolysin, the “midpoint of urea unfolding curve (5 µM peptide)” value in series [1] is “The midpoints of the unfolding curves of 5 µM and 25 µM were 2.14 and 3.20M urea”. Also, the “midpoint of urea unfolding curve (25 µM peptide)” value in series [2] was “The midpoints of the unfolding curves of 5 µM and 25 µM were 2.14 and 3.20M urea”.
“S. epidermidis delta-haemolysin (peptide)”: the deltaG (H2O) (5 µM peptide) in series [3] came to 1.43 kcal/mol. Moreover, the deltaG (H2O) (25 µM peptide) in series [4] is 1.57 kcal/mol.
